Assay: yeast display, Sf9 membrane polyspecificity reagent, FACS + sequencing; frameworks hold sequencing errors
How it was run: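 In a synthetic yeast display library (Saccharomyces cerevisiae BJ5465), nanobody expression was induced with galactose for 36–48 hours. FACS gates were set low and high (top ~1%) using anti-HA fluorescence for expression and streptavidin fluorescence for binding of the Sf9 membrane reagent. Each polyreactivity label is drawn from the gate of origin.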

## QVQLVESRGGLVQAGGSLRLSCAASGRIFYVNAMGGYRQAPGKERELVAAIDVSGGRTYYADSVKGRFTISRDNAKNTVYLQMNSLKPEDTAVYYCAALKYRWTPYYPYDYWGQGTQVTVSS
  polyreactivity (PSR sort gate): low polyreactivity

## QVQLVESVGGLVQAGGSLRLSCAASGYIFKYYAMGWYRQAPGKERELVAAISRSGGSTYYADSVKGRFTISRDNAKNTVYLQMNSLKPEDTAVYYCNAAAYVWKSKQRLYVITYDYWGQGTQVTVSW
  polyreactivity (PSR sort gate): high polyreactivity

## QVQLVESVGGLVQPGGSLRLSCAASGFTFRNNAMGWYRQSPVKERELVAAITGSGGRTYYTDSVKGRFTISSDNAKNTVYLQMHSLKPEDTAVYYCNTRYRGVHYTEMDYWGQGTQVSVSS
  polyreactivity (PSR sort gate): high polyreactivity

## QVQLVESGGGLVQAGRSLRLSCAASGSILSINGMGWYRQAPGKERELVATIDGSEGSTFYADSVKGRFTISRDNAKNTFYLQLNSVKPEDTAVYYCAAENFWQTKEYDYWGQGKQVTVSS
  polyreactivity (PSR sort gate): low polyreactivity

## QVQLVESGGGLVQAGGSLRLSCAASGITFGHYTMGWYRQAPGKERELVAAISWSGGSTYYADSVKGRFTISRDNAKNTVYLQMNSLKPEDTAVYYCNRVKPVIASYDSDYWGQGTQVTVSS
  polyreactivity (PSR sort gate): low polyreactivity

## QVQLVESGGGLVQAGGSLRLSCAASGRTFNPYAMGWYRQAPGKERELVAVISSIGGSTYADSVKGRFTISRDNAKNTVYLQMNSLKPEDTAVYYCNRATFGQWGGDYWGQGTQVTVSS
  polyreactivity (PSR sort gate): high polyreactivity

## QVQLVESGGGLVQAGCILRLSCAASGRIFNYYTMGWYRQAPGKEMELVAAITRTGGNTYYADSVKGRFTISRDNAKNTVYLKMNSLEPEDTAVYDCNVVWLNQREYYYWGQGTHVTVSS
  polyreactivity (PSR sort gate): high polyreactivity

## QVQLVESGGGLVPAGGSLRLSCAASGRIYARNAMGWYRKAPGKERDLVAAISSRGSSTYYADSVKGRFTISRDTAKNTVSLQMNSLKPEDTAVYYCNAYYSVYPPGYDYWGQGPQVTVSS
  polyreactivity (PSR sort gate): high polyreactivity

## QVQHVQSGGGLVQAGGSLRLSCAASGYIFWSYEIGGYRQAPGKERELDATITSGDSTYYADSVKGRFTISRDNAKNTVYLQMKSLKPEDTALDYCAACTYYRLTYWLREYDYSGQGTQVTVSS
  polyreactivity (PSR sort gate): low polyreactivity

## QVQLVESGGGLVQAGGSLRLSCAASGSIFNAYVMGWYRQAPGKERELVAAISRSGGRTYYADSVKGRFTISRDNAKNTVYLQMNSLKPEDTAVYYCAADYGGPYGQLDYWGQGTQVTVSS
  polyreactivity (PSR sort gate): high polyreactivity

## QVQLVESGGGLVQEGGSLRLSSAASGRTFGTNPMGWYRQAPGKERELVAAISTRDGSTYYADSVKGRFSISRDNAKNTVYLQMNSLKPEDTAVYYCNAVVRYYDWGYLDYDYWGQGTQVTVSS
  polyreactivity (PSR sort gate): low polyreactivity

## QVQLVESGGGLVQAGGRLRLSCAASGRIFKTYAMGWYRQAPGKERELVAAISIRGGSTYYAVSVKGRFTISRDNAKNTVYLQMNSLKPEDTAVYYCNALYGRQIVDYDYWGQGTQVTVSS
  polyreactivity (PSR sort gate): high polyreactivity

## QVQLVESGGGLVQAGGSLRLSCAASGFIFYTYAMGWYRQAPGKERELVAAISWRGGRTYYADSVKGRFTISRDNAKNTVYLQMNSLKPEDTAVYYCNAVTSSGEYDYWGQGTQVTVSS
  polyreactivity (PSR sort gate): high polyreactivity

## QVQLVESGGGLVQAGGSLRLSCAASGFIFKSYAMGWYRPAPGKERELVAAISSGGTTNYADSVKGRFTISRDNANNTVYLQMNSLKPEDTAVYYCAAALHGHTFPFYYWGHGTQVTVSS
  polyreactivity (PSR sort gate): low polyreactivity

## QVQLVESGGGLVQAGGSLRLSCADSGIIFHEYAMGWYRQAPGKERELVASISWNDGSTYADSVKGRFTISRDNAKNTVYLQMNSLKPEDTAVYYCAADYPYYPFSSIYDYWGQGTQVTVSS
  polyreactivity (PSR sort gate): low polyreactivity

## QVQLVESGGGLVQAGGSLRLSCAASGSTFGGYAMGWYRLAPGKERELVAAISSSGTSTYYADSVKGRFTISRDNAKNTVYLQMNSLKPEDTAVYYCATDFSFFSRFDYWGQGTQVTVSS
  polyreactivity (PSR sort gate): low polyreactivity

## QGQLVESGGVLVQGGGSLRLSCAASGSIFVYNAMGWSRQAPGKERELVAANTSSGASTYYADSVKGRFPISRDNAKNTVYLQMISLNPEDTDVYYCNAGADSTVGNYVTSFSQYDFWGQGTQVTVSS
  polyreactivity (PSR sort gate): low polyreactivity

## QVQLVESGGGLVQAGGSLRLSCAASGFTFYWYDMGWDRQAPGKEREFVAAIVQSGGSTYYADSVKGRFSISRDNAKITVYLQMKSLKPEDTAVYYGAARYILWDGDSWTEFDYWGQGTQVTVSS
  polyreactivity (PSR sort gate): low polyreactivity

## QVQLVDSGGGLVQEGGSLRLSCAASGRIFWYYDMGWYRQAPGKERELVAAISQRGGSTYYADSVKGRFTISRDNAKNTVYLQMNSLKPEDTAVYYCAKRNPYWATREYWGQGTQVTVSS
  polyreactivity (PSR sort gate): high polyreactivity

## QVQLVETGGGLVQAGGSLRLSCAASVIISSVYAMGWYRQAPGNERELVAAISGSGGSTYYADSVKGRFTISRDNAKNTVYLQMISLKPEDTAVYYCAKGYQYQGNSYGYWGQGTQVTVSS
  polyreactivity (PSR sort gate): low polyreactivity

## QVQLVESGGGLVQAGGSLRLSCAASGITSPYAMGWYRQAPGKERELVAAISWSGSSTYYADSVKGRFTISRDNAKYTVYLQMNSLNPEDTAVYYCATLVSASRSRRFGYEYWGQGSQVTVSS
  polyreactivity (PSR sort gate): high polyreactivity

## QVQLVESGGGLVKARGSLRLSFAASGSTFLVYAMGWYRQAPGKEREFVAAITWSGGYTYYADSVKGRFTISRDNAKNTVYLQMNSLKPEDTSVYYSAAEIQRTYSWEYPYEMYWGQGTQVTVSS
  polyreactivity (PSR sort gate): high polyreactivity

## QVQLVESWGGLVQAGGSLRLSCAASGSTFTPYVMGWSRQAPGKERELVAAISKRGGSTYYADSVKGRFTISRDNANNSVYLQMNSLKPADTAVYYCAAVQPAWGNGYWGQGTQVTVSS
  polyreactivity (PSR sort gate): high polyreactivity

## QVQLVESGGGLVQAGGSLRLSCAASGRTFISNAMGWYRQAPGKERELVATISRRGGITYYADSVKGRFTISRDNSKNTVYLQMNSLKPEDTAVFYCNARNYPQGIYYWGQGTQVTLSS
  polyreactivity (PSR sort gate): high polyreactivity

## QVQLVESGGGLVQAGGSLRLSCAPSGITFSYSAMGWYRQAPGKERELVAAISGSGTSTYYADSVKGRFTISRDNAKNTVYVQMNSLKPEVTAVYYCAAKGRKSVYSRNSWGQGTQVTVSS
  polyreactivity (PSR sort gate): high polyreactivity

## QVQLVESGGGLVQAGGSLRLSCAASGITLYRYAMGWYRHAPGKERELVAAISWSGGSTYYADSVKGRFTISRDNAKNTVYLQMNSLKPEDTAVYYCAADDYKDEHDYWGQGTQVTVSS
  polyreactivity (PSR sort gate): high polyreactivity

## QVQLVESGGGLVQAGGSLRLSCAASGSILSTYSMGCYRQAPGKERELVASISSNAGSTYYADSVKGRFTISRDNAKNTVYLQMNSLKPEDTAVYYCNKVYGGGTYDYWGQGTQVTVSS
  polyreactivity (PSR sort gate): low polyreactivity

## QVQLVESGGGLVQAGGSLRLSCAASGSIFKRNAMVSYRQAPGKERELVASISSGGSTHYADSVKGRFTISRDNAKNTVYLQMNSLTPEDTAVYYCAATSIRWSVCSFRRDYWGQGTQVTVSS
  polyreactivity (PSR sort gate): low polyreactivity

## QVQLVESGGGLVQAGGSLRLSCAASGRTFARNAMGWYRQAPGKERELVAAISSSGGSTYYADSVKGRFTISRDNAKNTVYLQMNSLKPEDTAVYYCARYSSFTYDYWGQGTQVTVSS
  polyreactivity (PSR sort gate): high polyreactivity

## QVQLVESGGGLVQAGGSLRLSCAASGSIFWWNTMGWYRQAPGTERELVAAITFSGGSTYYADSVKGRFTISRDNAKNTVYLQMNSLKPEDTAVYYCNADGWVSVRGTWSDGGYWGQGTQVTVSS
  polyreactivity (PSR sort gate): low polyreactivity

## QVHLVESGGGLVQAGGSLRLSCAASGSILSDNTLGWYRQAPGKERELVAAISRSGGTTYYADSVKGRFTISRDNAKNTVYLQMNSLKPEDTAVYYCAARYYYRYNYWGQGTQVTVSS
  polyreactivity (PSR sort gate): high polyreactivity

## QVQLVESAGGLVQAGGSLRLSCAPSGRIFYYNAMGWYRQAPGKERELVAAITSGGSTNYADSVKGRFTISRDNAKNTVYLQMNSLKPEDTAVYYCAADYYFYVAGVHYDYWGQGTQVTVSS
  polyreactivity (PSR sort gate): low polyreactivity

## QVQLVESGGGLVQAGGSLRLSCADSGSTFWFYERGWYSQAPGKVRELVAVISNSGSTYYADSVKGLFTISRDNAKNTVYLQMNSLKPEDTAVYYCNKDGGGDSYWYDYWGQGTQVTVSS
  polyreactivity (PSR sort gate): low polyreactivity

## QVQLQESGGLVQAGGLRLSCAASGYVSYQEAMGWYRQAPGKEREIVATISFGANTNYADSVKGRFTISRDNAKNTVYLQMNSLKPEDTAVYYCAAESLFDVYYGYWGQGTQVTVSS
  polyreactivity (PSR sort gate): low polyreactivity

## QVQLVESGGGLVQAGGSLRLSCAASGRTYRTYAMGWYRQAPGKEREFVAAITSSGGSTYYADSVKGRFTISRDNAKNTVDLEMNSLKPEDTAVYSCNAKRRYGPDKYDYWGQGTQVTVSS
  polyreactivity (PSR sort gate): high polyreactivity

## QVQLVESGGGLVQAGGSLRLSCAASGRIFPSYAMGWYRPAPGKERELVAAITWSGGSTYYAHSVKGRFTISRDNAKNTVYLLRNSLKPEDTAVYYCNRVERRGTYDYWGQGTQVSVSS
  polyreactivity (PSR sort gate): high polyreactivity

## QVQLVESGGGLVQAGGSLRLSCAAYGIIFTDYAMGWYRQAPGKERELVAANSSGGGSTYYADSVKGRFTISRDNAKNTVYLQMNSLKPEDTAVYYFAAQSSGSYGFDHWGQGTQVTVSS
  polyreactivity (PSR sort gate): high polyreactivity

## QVQLVESGGGLVQAGGSLRLSCAASGSISSQNAMVSYRQAPGKERELVAAISWIGGSTYYADSVKGRFTISRDFAKNTVYLQMNSLKPEDTAVYYCAKDRARGFKYYYWGQGTQVTVSS
  polyreactivity (PSR sort gate): low polyreactivity

## QVQLVESGGGLVQAGGSLRLSCAASGRIFRGYTMGWYRQAPGKEREFVAAITANGGRTYYADSVKGRFTISRDNAKNTVYLKMNSLKPEDTAVYYCNARTYTYRGSFDYWVQGTQVTVSS
  polyreactivity (PSR sort gate): high polyreactivity

## QVQLVESGGGLVQAGGSLRLSCAASGITFTSYAMGWYRQAPGKERELVAAISSSGVRTYYADSVKGRFTISRDNAKNTVYLQMNSLKPEDTAVYYCATRRRVLYGYDYWGQGTQVTVSS
  polyreactivity (PSR sort gate): high polyreactivity

## QVQLVESGGGLVQAGGSLRLSCAASGSIFYYNAMGWYRQAPGKERELVATIRTSGGSTYYADSVKGRFTISRDNAKNTVYLQMNSLKPVDTAVYYCAARDLRKLYSRYPYYYWGQGTQVTVSS
  polyreactivity (PSR sort gate): high polyreactivity

## QVQLVESGGGLVQAGGSLRLSCAASGNIFGWYAMGWYRKAPGKERELVAAISSGGRTNYADSVKGRFTISRDYAKNTVYLQMNSLKPEDTAVYYCNKVAGVTGRYYYWGQGTQVTVSS
  polyreactivity (PSR sort gate): low polyreactivity

## QVQLVETGGGLVQAGGILRLSCAATGSIFKAYDMGWYRKAPAKERELVAAITWSGGSTYYADSVKGRFTISRHNAKNTVYLQMNSLKPEDTAVYYCAAKLGLWAYYLYDYWGQGTQVTVSS
  polyreactivity (PSR sort gate): low polyreactivity

— the nanobody polyreactivity screen of Harvey et al. (2022)
